This passage reports transglycosylation of oxazoline 1 to the GlcNAc-peptide, yield of glycopeptide 66 results from patent US20240218342A1, “SITE-SPECIFIC GLYCAN REMODELING OF LYSOSOMAL ENZYMES AND APPLICATIONS THEREOF” (priority 2021, published 2024).

The target in the assay is GlcNAc-peptide derived from rhGAA containing N470 glycosite (human).
Sequence of GlcNAc-peptide derived from rhGAA containing N470 glycosite (human) (peptide, as listed by the source): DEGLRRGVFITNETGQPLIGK

The substance Endo A-N171A (enzyme) showed a transglycosylation of oxazoline 1 to the GlcNAc-peptide, yield of glycopeptide 66 of 53%.
